Laboratory results taken from publication PMC2132603.

Target: T1, Sec17p (S. cerevisiae (endogenous in yeast vacuoles)), P32602
T1 chain: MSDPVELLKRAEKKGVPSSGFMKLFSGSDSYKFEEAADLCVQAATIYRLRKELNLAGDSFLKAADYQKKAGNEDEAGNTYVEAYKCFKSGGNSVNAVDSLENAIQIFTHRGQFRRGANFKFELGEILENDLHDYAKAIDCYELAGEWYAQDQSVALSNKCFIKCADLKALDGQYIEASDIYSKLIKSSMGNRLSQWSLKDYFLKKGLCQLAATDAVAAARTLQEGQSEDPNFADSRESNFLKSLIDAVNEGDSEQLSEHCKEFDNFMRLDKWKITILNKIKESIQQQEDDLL
Assay: co-IP
Conditions: remark: other sources report otherwise

percent of Vam3p coprecipitated with Sec17p: > 50%
B1: Vam3p, Q12241 1-283 (natural protein)
chain: MSFFDIEAQSSKGNSQQEPQFSTNQKTKELSNLIETFAEQSRVLEKECTKIGSKRDSKELRYKIETELIPNCTSVRDKIESNILIHQNGKLSADFKNLKTKYQSLQQSYNQRKSLFPLKTPISPGTSKERKDIHPRTEAVRQDPESSYISIKVNEQSPLLHNEGQHQLQLQEEQEQQQQGLSQEELDFQTIIHQERSQQIGRIHTAVQEVNAIFHQLGSLVKEQGEQVTTIDENISHLHDNMQNANKQLTRADQHQRDRNKCGKVTLIIIIVVCMVVLLAVLS
